Laboratory results taken from publication PMC7545097, “Mapping the native interaction surfaces of PREP1 with PBX1 by cross-linking mass-spectrometry and mutagenesis” (Scientific Reports, 2020).
Substitutions are numbered along the chain they refer to. Values belong to the binder of their own block, whether it stands above or below them.

What was measured:
Experiment in all cases: time-resolved fluorescence immunoassay (TR-FIA); plate coated with monoclonal anti-PBX1; PBX1 pre-incubated with PREP1 or MEIS1 for 1 h on ice, 10 µg/mL in 1% BSA PBS, 1 h at room temperature on the plate; detected with anti-PREP1 or biotinylated anti-MEIS1/2 and Eu^3+ conjugates; normalised to the wild-type protein taken as 1
Details in all cases: both partners purified
PBX1 I204A = target: T1, PBX1 I204A (human, UniProt P40424 1-430, I204A)
T1 construct: PBX1, residues 1-430; source: E. coli, purified
T1 sequence (looked up): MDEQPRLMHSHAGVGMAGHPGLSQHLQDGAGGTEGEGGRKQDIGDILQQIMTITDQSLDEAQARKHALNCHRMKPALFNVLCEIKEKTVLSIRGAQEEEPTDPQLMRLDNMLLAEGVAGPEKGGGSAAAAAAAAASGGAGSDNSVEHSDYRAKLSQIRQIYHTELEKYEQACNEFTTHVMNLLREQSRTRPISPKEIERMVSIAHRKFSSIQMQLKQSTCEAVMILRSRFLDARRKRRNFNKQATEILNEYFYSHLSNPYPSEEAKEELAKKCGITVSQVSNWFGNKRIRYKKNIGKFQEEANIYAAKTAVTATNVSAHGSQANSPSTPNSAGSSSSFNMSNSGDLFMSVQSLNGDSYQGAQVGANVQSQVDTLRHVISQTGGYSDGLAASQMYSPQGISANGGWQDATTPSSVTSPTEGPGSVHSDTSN

[1] = target: T2, PBX1 with substitution of both 204 and 211 residues (I204A/I211A) (human, UniProt P40424 1-430, I204A | I211A)
T2 construct: PBX1, residues 1-430; source: E. coli, purified
T2 sequence (looked up): T1 sequence (looked up) with I211A

PREP1 L66A = target: T3, PREP1 L66A (UniProt P55347 1-436, L66A)
T3 construct: PREP1 (PKNOX1), residues 1-436
T3 sequence (looked up): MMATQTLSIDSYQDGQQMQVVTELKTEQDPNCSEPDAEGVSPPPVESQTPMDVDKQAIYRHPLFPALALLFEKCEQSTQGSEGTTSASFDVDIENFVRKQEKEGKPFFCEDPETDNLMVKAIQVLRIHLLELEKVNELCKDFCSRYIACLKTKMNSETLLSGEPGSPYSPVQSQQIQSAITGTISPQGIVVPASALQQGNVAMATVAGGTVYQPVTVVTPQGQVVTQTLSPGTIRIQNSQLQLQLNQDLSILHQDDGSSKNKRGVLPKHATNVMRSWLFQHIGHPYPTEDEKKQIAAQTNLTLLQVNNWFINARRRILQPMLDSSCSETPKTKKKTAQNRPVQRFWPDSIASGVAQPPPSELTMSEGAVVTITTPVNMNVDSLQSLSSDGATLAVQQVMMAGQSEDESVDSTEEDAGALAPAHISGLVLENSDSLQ

PREP1 L70A = target: T4, PREP1 L70A (UniProt P55347 1-436, L70A)
T4 construct: PREP1 (PKNOX1), residues 1-436
T4 sequence (looked up): T3 sequence (looked up) with A66L, L70A

- binding relative to wild type (PBX1 I204A): ~65%
- binding relative to wild type [1]: ~50%
B1: PREP1_(1-436), wild-type recombinant (TR-FIA) (natural protein, UniProt P55347 1-436, looked up)
chain: T3 sequence (looked up) with A66L
notes: also called wild-type PREP1; PKNOX1; source: E. coli, purified

- binding result (PREP1 L66A): binds
- binding result (PREP1 L70A): binds
B2: PBX1_(1-430), wild-type recombinant (natural protein, human, UniProt P40424 1-430, looked up)
chain: T1 sequence (looked up) with A204I
notes: also called wild-type PBX1; purified recombinant human PBX1; source: E. coli, purified
